Test results as given in US20230390406A1, “Star Polymer Drug Conjugates” (Vaccitech North America, Inc., priority 2020, published 2023).

Key:
[1] = small molecule, not polymer-bound; cited from earlier work
[2] = tested on: Compound AI, Ac-A′SPVB-AMC
[3] = tested on: Compound AJ, Ac-A′SK(Ac)VB-AMC
[4] = tested on: Compound AK, Ac-A′SK(Ac)SB-AMC
[5] = tested on: Compound AL, Ac-A′SKSB-AMC
[6] = tested on: Compound AM, Ac-A′VnL-AMC
[7] = tested on: Compound AN, Ac-A′SPVnL-AMC
[8] = tested on: Compound AO, Ac-A′SK(Ac)SnL-AMC
[9] = tested on: Compound AP, Ac-A′SKSnL-AMC

| Molecule | pKa [1] | cleavage of the peptide-AMC bond (HPLC, UV 350 nm, up to 6 hrs) (Compound AH, Ac-A′VB-AMC) | cleavage of the peptide-AMC bond (HPLC, UV 350 nm, up to 6 hrs) [2] | cleavage of the peptide-AMC bond (HPLC, UV 350 nm, up to 6 hrs) [3] | cleavage of the peptide-AMC bond (HPLC, UV 350 nm, up to 6 hrs) [4] | cleavage of the peptide-AMC bond (HPLC, UV 350 nm, up to 6 hrs) [5] | cleavage of the peptide-AMC bond (HPLC, UV 350 nm, up to 6 hrs) [6] | cleavage of the peptide-AMC bond (HPLC, UV 350 nm, up to 6 hrs) [7] | cleavage of the peptide-AMC bond (HPLC, UV 350 nm, up to 6 hrs) [8] | cleavage of the peptide-AMC bond (HPLC, UV 350 nm, up to 6 hrs) [9] |
| --- | --- | --- | --- | --- | --- | --- | --- | --- | --- | --- |
| CC(C)(CCN)C(=O)O [DMBA, 4-amino-2,2-dimethylbutanoic acid] | about 4.8 |  |  |  |  |  |  |  |  |  |
| cathepsin B (Sino Biological, protein human recombinant) |  | found to be metabolized quickly in the presence of cathepsin B as well as mouse plasma | found to be metabolized quickly in the presence of cathepsin B as well as mouse plasma | Compound AJ was relatively stable in both matrices | showed significant stability in mouse plasma, but were readily cleaved in the presence of human cathepsin | showed significant stability in mouse plasma, but were readily cleaved in the presence of human cathepsin | found to be metabolized quickly in the presence of cathepsin B as well as mouse plasma | found to be metabolized quickly in the presence of cathepsin B as well as mouse plasma | showed significant stability in mouse plasma, but were readily cleaved in the presence of human cathepsin | showed significant stability in mouse plasma, but were readily cleaved in the presence of human cathepsin |
